Positions count from the first letter of the chain named.
T1: human TGFβ2, mature receptor-binding domain (human, UniProt P09858 303-414 (pig entry), The mature TGFβ2 is a disulfide-linked homodimer of this 112-residue chain. The 4A11 epitope spans both monomers (p-1207).)
T1 construct: Peprotech; also called TGFb2
T1 sequence: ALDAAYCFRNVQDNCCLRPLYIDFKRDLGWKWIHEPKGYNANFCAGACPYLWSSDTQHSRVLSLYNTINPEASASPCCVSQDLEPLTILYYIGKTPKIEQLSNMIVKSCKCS

T2: human TGFβ3, mature dimeric form (human, UniProt P10600 301-412)
T2 construct: Peprotech, expressed in E. coli; also called TGFb3
T2 sequence: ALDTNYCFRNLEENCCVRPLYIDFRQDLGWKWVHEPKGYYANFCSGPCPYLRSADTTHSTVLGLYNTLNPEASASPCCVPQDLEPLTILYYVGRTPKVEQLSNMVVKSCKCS

B1: h4A11.v7.8 (antibody, human IgG1, kappa, N297G)
heavy: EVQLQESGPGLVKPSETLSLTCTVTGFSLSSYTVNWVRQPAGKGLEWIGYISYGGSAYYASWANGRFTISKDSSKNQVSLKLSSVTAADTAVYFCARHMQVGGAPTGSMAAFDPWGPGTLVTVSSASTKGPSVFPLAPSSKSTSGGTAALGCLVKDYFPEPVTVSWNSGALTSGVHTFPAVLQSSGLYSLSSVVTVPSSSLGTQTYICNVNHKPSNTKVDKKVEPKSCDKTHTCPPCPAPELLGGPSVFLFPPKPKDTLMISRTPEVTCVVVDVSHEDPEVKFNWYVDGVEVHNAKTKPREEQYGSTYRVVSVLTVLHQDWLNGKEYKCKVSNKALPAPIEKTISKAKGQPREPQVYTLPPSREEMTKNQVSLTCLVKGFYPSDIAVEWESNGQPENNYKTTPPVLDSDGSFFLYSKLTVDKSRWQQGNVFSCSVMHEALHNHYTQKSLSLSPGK
light: EAVLTQSPGTLSLSPGERATLSCQSSQSVYNNNYLSWFQQKPGQPPRLLIYGASTLTSGVPDRFSGSGSGTDFTLTISRLEPEDFAVYYCAGGYSGSSDKYAFGGGTKVEIKRTVAAPSVFIFPPSDEQLKSGTASVVCLLNNFYPREAKVQWKVDNALQSGNSQESVTEQDSKDSTYSLSSTLTLSKADYEKHKVYACEVTHQGLSSPVTKSFNRGEC
B2: h4A11.v7.9 (antibody, human IgG1, kappa, N297G, V domains shown)
VH: EQQLQESGPGLVKPSETLSLTCTVTGFSLSSYTVNWIRQPAGKGLEWIGYISYGGSAYYASWANGRFTISKDSSKNQVSLKLSSVTAADTAVYFCARHMQVGGAPTGSMAAFDPWGPGTLVTVSS
VL: EAVLTQSPGTLSLSPGERATLSCQSSQSVYNNNYLSWFQQKPGQPPRLLIYGASTLTSGVPDRFSGSGSGTDFTLTISRLEPEDFAVYYCAGGYSGSSDKYAFGGGTKVEIKR
B3: h4A11.v7.10 (antibody, human IgG1, kappa, N297G, V domains shown)
VH: B2 VH with I37V, F67V
VL: B2 VL
B4: h4A11.v7.12 (antibody, human IgG1, kappa, N297G, V domains shown)
VH: B2 VH with I37V, S73T
VL: B2 VL
B5: h4A11.v7.14 (antibody, human IgG1, kappa, N297G, V domains shown)
VH: B2 VH with I37V, F94Y
VL: B2 VL
B6: h4A11.v7.15 (antibody, human IgG1, kappa, N297G)
heavy: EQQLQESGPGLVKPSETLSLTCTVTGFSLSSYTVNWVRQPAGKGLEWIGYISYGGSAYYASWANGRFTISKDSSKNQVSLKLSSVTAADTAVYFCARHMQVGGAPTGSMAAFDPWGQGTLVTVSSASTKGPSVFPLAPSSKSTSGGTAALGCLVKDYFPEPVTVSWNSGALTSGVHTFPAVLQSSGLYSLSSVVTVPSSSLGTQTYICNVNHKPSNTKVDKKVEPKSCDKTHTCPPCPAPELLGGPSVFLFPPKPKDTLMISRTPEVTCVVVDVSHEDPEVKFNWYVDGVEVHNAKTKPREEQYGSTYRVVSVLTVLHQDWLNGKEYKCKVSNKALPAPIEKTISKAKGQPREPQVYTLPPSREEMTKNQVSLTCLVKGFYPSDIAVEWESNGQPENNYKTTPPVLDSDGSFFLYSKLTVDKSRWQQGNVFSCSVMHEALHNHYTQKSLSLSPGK
light: B1 light
B7: h4A11.v7.4 (antibody, V domains shown)
VH: B2 VH with I37V
VL: EIVLTQSPGTLSLSPGERATLSCQSSQSVYNNNYLSWFQQKPGQPPRLLIYGASTLTSGVPDRFSGSGSGTDFTLTISRLEPEDFAVYYCAGGYSGSSDKYAFGGGTKVEIK
B8: h4A11.v7.6 (antibody, V domains shown)
VH: B2 VH with I37V
VL: B7 VL with I2A, P45A
B9: h4A11.v7.7 (antibody, V domains shown)
VH: B2 VH with I37V
VL: B7 VL with I2A, V60I
B10: h6F12.v1.5 (antibody, human IgG1, kappa, N297G, V domains shown)
VH: EVTLKESGPVLVKPTETLTLTCTVSGFSLTTYNVHWVRQPPGKALEWMGLIWNTGGTRYNSALKSRLTISKDTSKSQVVLTMTNMDPVDTATYYCARDPVPNKWHFDFWGPGTLVTVSS
VL: DIQMTQSPSTLSASVGDRVTITCLASEDIYSNLAWYQQKPGKSPKLLIYDARSLQDGVPSRFSGSESGPEYTLTISSLQPDDFATYYCQQHHAYPFTFGQGTKVEIKR
B11: h6F12.v1.6 (antibody, human IgG1, kappa, N297G, V domains shown)
VH: B10 VH with V37I
VL: B10 VL with Y87F
B12: h6F12.v1.8 (antibody, human IgG1, kappa, N297G, V domains shown)
VH: B10 VH with G49A
VL: B10 VL with Y87F
B13: h6F12.v1.9 (antibody, V domains shown)
VH: B10 VH with P111R
VL: DIQMTQSPSTLSASVGDRVTITCLASEDIYSNLAWYQQKPGKSPKLLIYDARSLQDGVPSRFSGSESGPEYTLTISSLQPDDFATYFCQQHHAYPFTFGQGTKVEIK
B14: h4A11.v7.1 (antibody, human IgG1, kappa, N297G)
heavy: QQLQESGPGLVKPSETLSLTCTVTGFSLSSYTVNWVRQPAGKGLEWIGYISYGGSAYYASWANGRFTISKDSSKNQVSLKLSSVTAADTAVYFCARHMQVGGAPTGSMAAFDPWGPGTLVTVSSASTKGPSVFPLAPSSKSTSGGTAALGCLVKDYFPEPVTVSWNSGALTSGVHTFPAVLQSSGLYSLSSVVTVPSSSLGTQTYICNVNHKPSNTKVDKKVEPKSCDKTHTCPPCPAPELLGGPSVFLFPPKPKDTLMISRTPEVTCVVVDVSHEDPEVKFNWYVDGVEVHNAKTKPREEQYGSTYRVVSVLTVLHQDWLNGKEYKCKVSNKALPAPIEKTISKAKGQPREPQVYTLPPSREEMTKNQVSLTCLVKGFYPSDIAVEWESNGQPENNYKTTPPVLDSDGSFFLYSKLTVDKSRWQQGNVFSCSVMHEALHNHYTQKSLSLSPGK
light: B1 light
B15: h4A11.v7.2 (antibody, human IgG1, kappa, N297G)
heavy: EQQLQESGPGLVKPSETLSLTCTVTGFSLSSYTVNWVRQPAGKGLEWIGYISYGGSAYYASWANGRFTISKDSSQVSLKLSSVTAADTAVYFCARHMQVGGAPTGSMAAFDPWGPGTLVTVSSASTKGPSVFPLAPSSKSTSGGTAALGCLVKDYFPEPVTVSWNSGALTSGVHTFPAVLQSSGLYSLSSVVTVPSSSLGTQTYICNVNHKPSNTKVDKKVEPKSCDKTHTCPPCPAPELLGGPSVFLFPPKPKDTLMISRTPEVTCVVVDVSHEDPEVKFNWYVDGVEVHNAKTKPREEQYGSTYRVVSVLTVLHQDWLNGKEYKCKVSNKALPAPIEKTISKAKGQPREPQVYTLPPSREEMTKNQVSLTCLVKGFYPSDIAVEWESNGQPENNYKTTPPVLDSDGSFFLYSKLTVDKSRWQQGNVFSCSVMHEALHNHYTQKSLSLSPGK
light: B1 light
B16: h4A11.v7.3 (antibody, human IgG1, kappa, N297G)
heavy: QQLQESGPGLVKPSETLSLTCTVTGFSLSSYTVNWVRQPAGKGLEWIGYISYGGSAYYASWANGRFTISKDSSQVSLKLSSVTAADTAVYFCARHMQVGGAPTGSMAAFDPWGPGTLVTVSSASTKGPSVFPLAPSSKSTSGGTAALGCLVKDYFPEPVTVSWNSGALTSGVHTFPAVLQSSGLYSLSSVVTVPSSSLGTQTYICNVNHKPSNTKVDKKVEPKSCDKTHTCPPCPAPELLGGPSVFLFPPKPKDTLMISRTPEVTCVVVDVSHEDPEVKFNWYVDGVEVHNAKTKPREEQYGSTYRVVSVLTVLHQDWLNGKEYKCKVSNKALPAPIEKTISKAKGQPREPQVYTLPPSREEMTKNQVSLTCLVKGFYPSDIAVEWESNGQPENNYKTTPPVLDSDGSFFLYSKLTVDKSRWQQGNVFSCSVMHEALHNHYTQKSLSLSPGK
light: B1 light
B17: h6F12.v1.1 (antibody, human IgG1, kappa, N297G, V domains shown)
VH: B10 VH
VL: B10 VL with S43A, Y87F
B18: h6F12.v1.2 (antibody, human IgG1, kappa, N297G, V domains shown)
VH: B10 VH
VL: B10 VL with E66G, Y87F
B19: h6F12.v1.3 (antibody, human IgG1, kappa, N297G, V domains shown)
VH: B10 VH
VL: B10 VL with P69T, Y87F
B20: h6F12.v1.4 (antibody, human IgG1, kappa, N297G, V domains shown)
VH: B10 VH
VL: B10 VL with Y71F, Y87F
B21: h6F12.v1.7 (antibody, human IgG1, kappa, N297G, V domains shown)
VH: B10 VH with M48L
VL: B10 VL with Y87F

Each binder was assayed against T1, human TGFβ2, mature receptor-binding … (assay: BIAcore T200).
Experimental: (§1) For binding affinity determinations of all humanized 2A10 antibodies, Surface Plasmon Resonance (SPR) measurement with a BIAcore™-T200 instrument was used. Briefly, series S CM5 biosensor chip with protein A was first applied to capture each humanized 2A10 variant to achieve approximately 100 response units (RU) on each flow cell, following by injection of 3-fold serial dilutions of human TGFβ1, TGFβ2 or TGFβ3 (0.02 nM to 5 nM) in HBS-EP buffer (0.01M HEPES pH 7.4, 0.15M NaCl, 3 mM EDTA and 0.05% v/v surfactant P20) at 25° C. with a flow rate of 50 μl/min for kinetics measurement. Association rates (ko.) and dissociation rates (koff) were calculated using a simple one-to-one Langmuir binding model (BIAcore T200 evaluation software version 2.0) to determine the equilibrium dissociation constant (KD), which was calculated as the ratio koff/kₒₙ.
(§2) Binding affinity determinations of all humanized 4A11 antibodies were performed using SPR measurement with a BIAcore™-T200 instrument, as described above in Example 6 ([…]).

| Binder | Kd |
| --- | --- |
| B1 | 0.0045 nM |
| B2 | 0.0049 nM |
| B3 | 0.0056 nM |
| B4 | 0.006 nM |
| B5 | 0.0049 nM |
| B6 | 0.0047 nM |
| B7 | 0.0064 nM |
| B8 | 0.0058 nM |
| B9 | 0.0063 nM |

Each binder was assayed against T2, human TGFβ3, mature dimeric form (assay: BIAcore T200).
Experimental: as §1, §2

| Binder | Kd |
| --- | --- |
| B1 | 0.0053 nM |
| B2 | 0.0057 nM |
| B3 | 0.0068 nM |
| B4 | 0.0065 nM |
| B5 | 0.0055 nM |
| B6 | 0.0048 nM |
| B7 | 0.0043 nM |
| B8 | 0.0065 nM |
| B9 | 0.0061 nM |

These binders were tested against T1, human TGFβ2, mature receptor-binding … (assay: cell-based or functional assay).

| Binder | fold loss of blocking against h4A11.v7 | fold drop in blocking against h6F12.v1 |
| --- | --- | --- |
| B5 | 4 fold | – |
| B10 | – | 2 fold |
| B11 | – | 5 to 8 fold |
| B12 | – | 4 fold |
| B13 | – | 5 to 8 fold |

What follows are binders tested against T3, human TGFβ1, mature receptor-binding domain (human, UniProt P01137 279-390) (assay: cell-based or functional assay).
T3 sequence (P01137 279-390 limits assumed): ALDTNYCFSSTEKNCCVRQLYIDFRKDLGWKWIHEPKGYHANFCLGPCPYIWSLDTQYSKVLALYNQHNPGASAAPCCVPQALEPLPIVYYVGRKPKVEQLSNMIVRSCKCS

| Binder | HEKBlue TGFβ blocking IC50 |
| --- | --- |
| B1 | > 200 nM |
| B2 | > 200 nM |
| B3 | > 200 nM |
| B4 | > 200 nM |
| B5 | > 200 nM |
| B6 | > 200 nM |
| B14 | > 33 nM |
| B15 | > 33 nM |
| B16 | > 33 nM |
| B7 | > 200 nM |
| B8 | > 200 nM |
| B9 | > 200 nM |

Target: T1, human TGFβ2, mature receptor-binding …
Experiment: cell-based or functional assay
Remark: another data set of the same source

| Binder | HEKBlue TGFβ blocking IC50 |
| --- | --- |
| B1 | 0.06 nM |
| B2 | 0.08 nM |
| B3 | 0.02 nM |
| B4 | 0.01 nM |
| B5 | 0.35 nM |
| B6 | 0.09 nM |
| B14 | 0.09 nM |
| B15 | 0.03 nM |
| B16 | 0.03 nM |
| B7 | 0.01 nM |
| B8 | 0.01 nM |
| B9 | 0.04 nM |

What follows are binders tested against T2, human TGFβ3, mature dimeric form (assay: cell-based or functional assay).

| Binder | HEKBlue TGFβ blocking IC50 |
| --- | --- |
| B1 | 0.03 nM |
| B2 | 0.02 nM |
| B3 | 0.02 nM |
| B4 | 0.03 nM |
| B5 | 0.04 nM |
| B6 | 0.02 nM |
| B14 | 0.03 nM |
| B15 | 0.01 nM |
| B16 | 0.03 nM |
| B7 | 0.05 nM |
| B8 | 0.01 nM |
| B9 | 0.04 nM |

Target: T3, human TGFβ1, mature receptor-binding …
Experiment: cell-based or functional assay
Remark: another data set of the same source

| Binder | HEKBlue TGFβ blocking IC50 |
| --- | --- |
| B17 | > 200 nM |
| B18 | > 200 nM |
| B19 | > 200 nM |
| B20 | > 200 nM |
| B10 | > 200 nM |
| B11 | > 200 nM |
| B21 | > 200 nM |
| B12 | > 200 nM |
| B13 | > 200 nM |

Target: T1, human TGFβ2, mature receptor-binding …
Experiment: cell-based or functional assay
Remark: another data set of the same source

| Binder | HEKBlue TGFβ blocking IC50 |
| --- | --- |
| B17 | 0.02 nM |
| B18 | 0.02 nM |
| B19 | 0.01 nM |
| B20 | 0.02 nM |
| B10 | 0.04 nM |
| B11 | 0.11 nM |
| B21 | 0.03 nM |
| B12 | 0.08 nM |
| B13 | 0.16 nM |

Target: T2, human TGFβ3, mature dimeric form
Experiment: cell-based or functional assay
Remark: another data set of the same source

| Binder | HEKBlue TGFβ blocking IC50 |
| --- | --- |
| B17 | > 200 nM |
| B18 | > 200 nM |
| B19 | > 200 nM |
| B20 | > 200 nM |
| B10 | > 200 nM |
| B11 | > 200 nM |
| B21 | > 200 nM |
| B12 | > 200 nM |
| B13 | > 200 nM |

From patent US20210301005A1 (Genentech, published 2021)
